Test results reported in patent publication US20120321697A1, “BPB-BASED CARGO DELIVERY SYSTEM” (GWANGJU INSTITUTE OF SCIENCE AND TECHNOLOGY, priority 2009, published 2012).
No end group written: not given here.

Legend:
[1] = target: T1, fibronectin EDB (Homo sapiens, UniProt P02751); experiment: Kd (1/s)
T1 construct: After transformation of pET28b vector carrying fibronectin ED-B into BL21 cells; His-tag (N); made in house; host or cells: E. coli BL21
Text: (§1) Table printed on a drawing sheet, Fig. 11b
Head of the field: Kd (1/s)
(§2) The patent's description of the figure: FIG. 11a represents purification of the GST-BPB fusion protein.
(§3) FIG. 11b represents affinity of the GST-BPB to fibronectin EDB.
(§4) First copying reader's note: The name GST-BPB is printed only in Fig. 11a on this sheet, and the description gives Fig. 11b as its affinity to fibronectin EDB; the KD head says M but the cell prints nM.
(§5) Where the first naming reader finds the target: description_of_the_figure: FIG. 11b represents affinity of the GST-BPB to fibronectin EDB.

[2] = target: T1, fibronectin EDB; experiment: Ka (1/Ms)
Text: as §1
Head of the field: Ka (1/Ms)
as §2, §3, §4, §5

T1 sequence (P02751 1271-1359): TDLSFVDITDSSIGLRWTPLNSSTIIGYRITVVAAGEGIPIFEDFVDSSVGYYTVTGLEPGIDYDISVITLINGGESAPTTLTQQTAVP

With “GST-BPB: fusion protein of glutathione S-transferase and BPB HCSSAVGSWTWENGKWTWKGIIRLEQ recognizing fibronectin EDB ({GST}-HCSSAVGSWTWENGKWTWKGIIRLEQ)” the “Kd” value [1] was 0.00347 s⁻¹ and the “Ka (1/Ms)” value [2] was 1.22 e4 1/Ms.
